This is an account of results in paper PMC9606073 (Immunity, 2022).

Conditions in all cases: both partners purified
One test deals with T1, Rf1-CoV RBD (Bat SARS CoV Rf1/2004, UniProt Q0QDZ0).
T1 construct: source: Expi293F cells, transient transfection, purified (Ni-NTA, SEC)
Nature of the test: ELISA. (In an ELISA, binding on a coated surface is turned into a signal by an enzyme label.)

The next test addresses T2, Yun11-CoV RBD (Bat coronavirus Cp/Yunnan2011 (Yun11), UniProt R9QTH3).
T2 construct: source: Expi293F cells, transient transfection, purified (Ni-NTA, SEC)
Nature of the test: ELISA.

In test [1] the target is SARS-CoV-2 WA1 RBD (SARS-CoV-2 USA-WA1/2020 (MT246667.1)). The test can be described thus: ELISA.
For test [2], the target named is SARS-CoV-2 RBD (residues 323-528) (SARS-CoV-2 WA1). Nature of the test: crystal structure.
The target of test [3] is SARS-CoV-2 WA1 RBD (SARS-CoV-2 USA-WA1/2020 (MT246667.1)). Nature of the test: SPR. For orientation: Surface plasmon resonance follows binding to a sensor surface in real time, without labels.

B1: M8a-34 IgG (antibody, V domains shown)
VH: QVQLQQPGAELVKPGASVKMSCKASGYTFITYWITWVKQRPGQGLEWIGDIYPGGGRTNYNEKFKSKATLTVDTSSSTAYMQLRSLTSEDSAVYYCARYDGNYVGYYYAMDYWGQGTSVTVSS
VL: DIVLTQSPVSLAVSLGQRATISCRASESVDFYGNSFIYWYQQKPGQAPKLLIYRASNLESGIPARFSGSGSRTDFTLTIHPVEADDVATYYCQQSIEDPRTFGGGTKLEIK
notes: copies: 2 + 2
For the molecule B1, the binding result with Rf1-CoV RBD, with Yun11-CoV RBD and with SARS-CoV-2 WA1 RBD [1] was “binds” throughout.

B2: M8a-34 Fab (Fab, V domains shown)
VH: B1 VH
VL: B1 VL
B2: the binding result in test [2] is listed as “binds”.

B3: HSW-1 IgG (antibody, V domains shown)
VH: QVQLQQPGAELVKPGTSMKLSCKASGYTFTSYWMHWVKQRPGQGLEWIGMIHPNSGSTKYNENFKSKATLTVDKSSSTAYMQFSSLTSEDSAVYYCVRSGSYYGTTYDYFDYWGQGTTLTVSS
VL: DIVLTQSPASLAVSLGQRATISCRASESVNIYGNSFMHWYQQKPGQPPKLLIFRASNLESGIPVRFSGSGSRTDFTLTINPVEADDVATYYCHQSNEDPFTFGSGTKLEIK
notes: copies: 2 + 2
With B3, in the test with SARS-CoV-2 WA1 RBD [1], the binding result is reported as “binds”.

B4: HSW-2 Fab (Fab, V domains shown)
VH: QVQLQQSGPELVKPGASVKISCKASGYVFSTSWMSWVKQRPGEGPEWIGRIYPRDGHSSSTGKFKDKATLTADKSSNTAYIHLSSLTSEDSAVYFCARDYGYYYFDYWGQGTTLTVSS
VL: DIQMTQSPASLSASVGEAVTITCRLSENVYSFLAWYQQKQGKSPQLLVYRAKTLAEGVPSRFSGSGSGTQFSLKINSLQPEDFGTYYCQHHYGTPPTFGGGTKLEIK
For B4, the binding result in test [2] is reported as “binds”.

B5: HSW-2 IgG (antibody, V domains shown)
VH: B4 VH
VL: B4 VL
notes: copies: 2 + 2
In the case of B5, the binding result with SARS-CoV-2 WA1 RBD [1] is given as “binds”.

B6: M8a-3 IgG (antibody, V domains shown)
VH: QVQLQQPGAELVLPGASVKLSCKASGYTFTNYWMHWVKQRPGHGLEWIGEIDPFDTYIKINQKFKGKSTLTVDTSSSTAYMQLSSLTSEDSAVYYCARPDSSGYPVYFDYWGQGTTLTVSS
VL: DIVMTQSHKFMSTSVGDRVSITCKASQDVGTYIAWYQQKPGQSPKLLIYWASTRHTGVPDRFTGSGSGTNYTLTISSVQAEDLALYHCQQHYSTPYTFGGGTKLEIK
notes: copies: 2 + 2
Turning to B6, in the test with SARS-CoV-2 WA1 RBD [3], binding was characterised by a dissociation constant (Kd) of 0.86 nM; the koff (usually the first-order rate constant of dissociation) was determined as 0.00016 s⁻¹; the on-rate (kon) – broadly, the rate constant with which the complex forms – was found to be 190000 M⁻¹ s⁻¹.

B7: M8a-3 IgG (antibody, V domains shown)
VH: B6 VH
VL: B6 VL
notes: copies: 2 + 2
For the molecule B7, the binding result with Yun11-CoV RBD was “binds”.

B8: M8a-28 IgG (antibody, V domains shown)
VH: QVQLQQPGAELVKPGASVKMSCKASGYNFNHYWISWVKQRPGQGLEWIGDIYPLSHFTTYNEKFTNRATLTVDTSSTTAYMQLNSLTSDDSAVFYCARWDYFDSRTFDYWGQGTTLTVSS
VL: DILLTQFPAILSVSPGERVSFSCRASQTIGTNIHWYQQRINGSPRLLIKYASESISGIPSRFSGSGSGTDFSLSINNVESEDIADYYCQQINSWPLTFGAGTKLDLK
notes: copies: 2 + 2
As to B8, the binding result with SARS-CoV-2 WA1 RBD [1] was “binds”.

B9: M8a-31 IgG (antibody, V domains shown)
VH: EVQLKQSVAELVRPGASVKVSCTASGFNIKNIYMHWVKQRPEQGLDWIGRIDPANGNSRYAPKFQDKATITADTSSNTAYLQLSSLTSEDTAIYYCADEGWGFANWGQGTLVTVSA
VL: DIVMTQSPSSLTVTAGEKVTMSCKSSQSLLNSGNQKNYLTWYQQKVGQPPKLLIYWASTRDPGVPDRFTGSGFGTDFTLTISSVQAEDLAVYYCQNDYSYPLTFGAGTKVELK
notes: copies: 2 + 2
Regarding B9, the binding result with Rf1-CoV RBD, in the test with Yun11-CoV RBD and with SARS-CoV-2 WA1 RBD [1] was “binds” in each case.

B10: C118 IgG (antibody, V domains shown)
VH: QVQLVESGGGVVQPGRSLRLSCAASGFTFSNYAMHWVRQAPGKGLEWVAVISYDGSNKYYADSVKGRFTISRDNSKNTLYLQMNSLRAEDTAIYYCASGYTGYDYFVRGDYYGLDVWGQGTTVTVSS
VL: QPVLTQSPSASASLGASVKLTCTLSSGHSSYAIAWHQQQPEKGPRYLMKLNTDGSHSKGDGIPDRFSGSSSGAERYLTISSLQSEDEADYYCQTWGTGILVFGGGTKLTVL
notes: copies: 2 + 2
For B10, in the test with SARS-CoV-2 WA1 RBD [3], the dissociation constant (Kd) (usually a measure of binding affinity in units of concentration) came to 0.19 nM, the koff was 3.5e-05 s⁻¹ and the kon was determined as 180000 M⁻¹ s⁻¹.

B11: M8a-6 IgG (antibody, V domains shown)
VH: QVQLQQPGTELVMPGASVKLSCKTSGYTFTHYWMHWVKQRPGEGLEWIGEIAPSDNYVKYNQKFKGKSTLSVDRSSSTAYMQLSSLTSEDSAVYFCARPDNSGYPVYFDYWGQGTSLTVSS
VL: DIVMTQSQKFMSTSLGDRVSISCKASQDVGTTVAWYQQKPGQSPKLLIYWASTRHTGVPDRFTGTGSGTDYTLTISSVAAEDLALYYCQQHYNTPYTFGGGTKLEIE
notes: copies: 2 + 2
Take B11: the affinity with SARS-CoV-2 WA1 RBD [3], expressed as Kd, was 104 nM.

B12: M8a-6 Fab (Fab, V domains shown)
VH: B11 VH
VL: B11 VL
notes: source: Expi293 cells, transient transfection, purified (Ni-NTA, SEC)
For the molecule B12, in test [2], the binding result is reported as “binds”.
